Laboratory results as given in PMC7442826 (2020).

B1: EHBP1 CH (calponin homology) domain [human] / EHBP1 bMERB domain (bMERB_(1060-1212), full-length bMERB domain) [human] (parent complex)
chain 1: GRKPNASQSLLVWCKEVTKNYRGVKITNFTTSWRNGLSFCAILHHFRPDLIDYKSLNPQDIKENNKKAYDGFASIGISRLLEPSDMVLLAIPDKLTVMTYLYQIRAHFSGQ
chain 2: not shown

Variants of: B1
Assay: ITC

| Kd | Variant |
| --- | --- |
| 5.65 µM | chain 1 Y102A |

Variants of: B1
Assay: ITC
Remark: another data set of the same source

| Kd | Variant |
| --- | --- |
| 43.5 µM | chain 1 D93A |

Variants of: B1
Assay: ITC
Remark: another data set of the same source

| Kd | Variant |
| --- | --- |
| 7.6 µM | chain 1 M98A |

Variants of: B1
Assay: ITC
Remark: another data set of the same source

| Kd | Variant |
| --- | --- |
| 3.85 µM | chain 1 Q103A |
